This passage reports Kd, koff and kon results from US20170253656A1 (SUTRO BIOPHARMA, published 2017).

The labels stand for the following.
T1: hu-CD74 antigen (R&D SYSTEMS catalog #3590-CD-050) (human, UniProt P04233-2 73-232, limits assumed)
T1 construct: Bought antigen; also called rhCD74; human CD74
T1 sequence (looked up): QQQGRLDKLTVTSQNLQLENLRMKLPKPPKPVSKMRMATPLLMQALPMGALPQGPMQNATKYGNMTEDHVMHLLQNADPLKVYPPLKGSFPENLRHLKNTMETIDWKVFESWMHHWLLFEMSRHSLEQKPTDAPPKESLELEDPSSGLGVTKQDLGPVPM

B1: 1275-G02 light chain paired with HC 1251-F07 (SEQ ID NO: 311) (antibody, human IgG1, V domains shown)
VH: QVQLVESGGGVVQPGRSLRLSCAASGFTFSSHGMHWVRQAPDKGLEWVAVIWDDGSNEVYADSVKGRFTISRDNSKNTLYLQMNSLRAEDTAVYYCARGGTRIRGLRYGTDVWGQGTTVTVSS
VL: DIQMTQSPSSLSASVGDRVTITCRASQGLGSFLAWYQQKPEKAPKSLIYLGNLLQIGVPSRFSGSGSGTDFTLTISSLQPEDFATYYCQQYNAYPLTFGGGTKVEIK
B2: 1251-A06 heavy chain paired with VL SEQ ID NO: 272 (antibody, V domains shown)
VH: QVQLVESGGGVVQPGRSLRLSCAASGFDFSSYGMHWVRQAPDKGLEWVAVIWDDGSDRYYADSVKGRFTISRDNSKNTLYLQMNSLRAEDTAVYYCARGGTRVLGAIHGTDVWGQGTTVTVSS
VL: DIQMTQSPSSLSASVGDRVTITCRASQGISSWLAWYQQKPEKAPKSLIYAASSLQSGVPSRFSGSGSGTDFTLTISSLQPEDFATYYCQQYNSYPLTFGGGTKVEIK
B3: 1251-D09 heavy chain paired with VL SEQ ID NO: 272 (antibody, V domains shown)
VH: QVQLVESGGGVVQPGRSLRLSCAASGFSFSSYGMHWVRQAPDKGLEWVAVIWYDASIRKYAGSVKGRFTISRDNSKNTLYLQMNSLRAEDTAVYYCARGGTVERGAIYGTDVWGQGTTVTVSS
VL: DIQMTQSPSSLSASVGDRVTITCRASQGISSWLAWYQQKPEKAPKSLIYAASSLQSGVPSRFSGSGSGTDFTLTISSLQPEDFATYYCQQYNSYPLTFGGGTKVEIK
B4: 1251-D02 heavy chain paired with VL SEQ ID NO: 272 (antibody, V domains shown)
VH: QVQLVESGGGVVQPGRSLRLSCAASGFSFASHGMHWVRQAPDKGLEWVAVIWDDGSDRYYADSVKGRFTISRDNSKNTLYLQMNSLRAEDTAVYYCARGGTRVLGAIHGTDVWGQGTTVTVSS
VL: DIQMTQSPSSLSASVGDRVTITCRASQGISSWLAWYQQKPEKAPKSLIYAASSLQSGVPSRFSGSGSGTDFTLTISSLQPEDFATYYCQQYNSYPLTFGGGTKVEIK
B5: 1251-B09 heavy chain paired with VL SEQ ID NO: 272 (antibody, V domains shown)
VH: QVQLVESGGGVVQPGRSLRLSCAASGFNFSDYGMHWVRQAPDKGLEWVAVTWYDGSREYYADSVKGRFTISRDNSKNTLYLQMNSLRAEDTAVYYCARGGTLVHGALYGNDVWGQGTTVTVSS
VL: DIQMTQSPSSLSASVGDRVTITCRASQGISSWLAWYQQKPEKAPKSLIYAASSLQSGVPSRFSGSGSGTDFTLTISSLQPEDFATYYCQQYNSYPLTFGGGTKVEIK
B6: 1251-D06 heavy chain paired with VL SEQ ID NO: 272 (antibody, V domains shown)
VH: QVQLVESGGGVVQPGRSLRLSCAASGFSFGSYGMHWVRQAPDKGLEWVAVVWYDGSKTIYADSVKGRFTISRDNSKNTLYLQMNSLRAEDTAVYYCARGGTLVRGAVYGLDVWGQGTTVTVSS
VL: DIQMTQSPSSLSASVGDRVTITCRASQGISSWLAWYQQKPEKAPKSLIYAASSLQSGVPSRFSGSGSGTDFTLTISSLQPEDFATYYCQQYNSYPLTFGGGTKVEIK
B7: 1251-B08 heavy chain paired with VL SEQ ID NO: 272 (antibody, V domains shown)
VH: QVQLVESGGGVVQPGRSLRLSCAASGFNFSDYGMHWVRQAPDKGLEWVAVIWYDGSISYYADSVKGRFTISRDNSKNTLYLQMNSLRAEDTAVYYCARGGTVEHGAVYGTDVWGQGATVTVSS
VL: DIQMTQSPSSLSASVGDRVTITCRASQGISSWLAWYQQKPEKAPKSLIYAASSLQSGVPSRFSGSGSGTDFTLTISSLQPEDFATYYCQQYNSYPLTFGGGTKVEIK
B8: 1251-F07 heavy chain paired with VL SEQ ID NO: 272 (antibody, V domains shown)
VH: QVQLVESGGGVVQPGRSLRLSCAASGFTFSSHGMHWVRQAPDKGLEWVAVIWDDGSNEVYADSVKGRFTISRDNSKNTLYLQMNSLRAEDTAVYYCARGGTRIRGLRYGTDVWGQGTTVTVSS
VL: DIQMTQSPSSLSASVGDRVTITCRASQGISSWLAWYQQKPEKAPKSLIYAASSLQSGVPSRFSGSGSGTDFTLTISSLQPEDFATYYCQQYNSYPLTFGGGTKVEIK
B9: HC 1251_B08 (wt)/LC 1337_A10 (g) (antibody, human IgG1, kappa, V domains shown)
VH: QVQLVESGGGVVQPGRSLRLSCAASGFNFSDYGMHWVRQAPDKGLEWVAVIWYDGSISYYADSVKGRFTISRDNSKNTLYLQMNSLRAEDTAVYYCARGGTVEHGAVYGTDVWGQGATVTVSS
VL: DIQMTQSPSSVSASVGDRVTITCRASQGISSWVAWYQQKPGKAPKLLIYGSSRLQSGVPSRFSGSGSGTDFTLTISSLQPEDFATYYCQQYNTYPLTFGGGTKVEIKR
notes: IgG format
B10: HC 1251_B08 (g)/LC 1337_A07 (g) (antibody, human IgG1, kappa, V domains shown)
VH: QVQLVESGGGVVQPGRSLRLSCAASGFNFSDYGMHWVRQAPGKGLEWVAVIWYDGSISYYADSVKGRFTISRDNSKNTLYLQMNSLRAEDTAVYYCARGGTVEHGAVYGTDVWGQGTTVTVSS
VL: DIQMTQSPSSVSASVGDRVTITCRASQGISSWVAWYQQKPGKAPKLLIYGASRLQSGVPSRFSGSGSGTDFTLTISSLQPEDFATYYCQQYHTYPLTFGGGTKVEIKR
notes: IgG format
B11: HC 1251_B08 (g)/LC 1337_A09 (g) (antibody, human IgG1, kappa, V domains shown)
VH: QVQLVESGGGVVQPGRSLRLSCAASGFNFSDYGMHWVRQAPGKGLEWVAVIWYDGSISYYADSVKGRFTISRDNSKNTLYLQMNSLRAEDTAVYYCARGGTVEHGAVYGTDVWGQGTTVTVSS
VL: DIQMTQSPSSVSASVGDRVTITCRASQGIGSWLAWYQQKPGKAPKLLIYAADRLQSGVPSRFSGSGSGTDFTLTISSLQPEDFATYYCQQYHTYPLTFGGGTKVEIKR
notes: IgG format
B12: HC 1251_B08 (g)/LC 1337_A09 (wt) (antibody, human IgG1, kappa, V domains shown)
VH: QVQLVESGGGVVQPGRSLRLSCAASGFNFSDYGMHWVRQAPGKGLEWVAVIWYDGSISYYADSVKGRFTISRDNSKNTLYLQMNSLRAEDTAVYYCARGGTVEHGAVYGTDVWGQGTTVTVSS
VL: DIQMTQSPSSLSASVGDRVTITCRASQGIGSWLAWYQQKPEKAPKSLIYAADRLQSGVPSRFSGSGSGTDFTLTISSLQPEDFATYYCQQYHTYPLTFGGGTKVEIKR
notes: IgG format
B13: HC 1251_B08 (g)/LC 1275_C10 (wt) (antibody, human IgG1, kappa, V domains shown)
VH: QVQLVESGGGVVQPGRSLRLSCAASGFNFSDYGMHWVRQAPGKGLEWVAVIWYDGSISYYADSVKGRFTISRDNSKNTLYLQMNSLRAEDTAVYYCARGGTVEHGAVYGTDVWGQGTTVTVSS
VL: DIQMTQSPSSLSASVGDRVTITCRASQGVSSWLAWYQQKPEKAPKSLIYSARYLQSGVPSRFSGSGSGTDFTLTISSLQPEDFATYYCQQYNLYPLTFGGGTKVEIKR
notes: IgG format
B14: HC 1251_B08 (g)/LC 1275_C10 (g) (antibody, human IgG1, kappa, V domains shown)
VH: QVQLVESGGGVVQPGRSLRLSCAASGFNFSDYGMHWVRQAPGKGLEWVAVIWYDGSISYYADSVKGRFTISRDNSKNTLYLQMNSLRAEDTAVYYCARGGTVEHGAVYGTDVWGQGTTVTVSS
VL: DIQMTQSPSSVSASVGDRVTITCRASQGVSSWLAWYQQKPGKAPKLLIYSARYLQSGVPSRFSGSGSGTDFTLTISSLQPEDFATYYCQQYNLYPLTFGGGTKVEIKR
notes: IgG format
B15: HC 1251_B08 (g)/LC 1337_A10 (g) (antibody, human IgG1, kappa, V domains shown)
VH: QVQLVESGGGVVQPGRSLRLSCAASGFNFSDYGMHWVRQAPGKGLEWVAVIWYDGSISYYADSVKGRFTISRDNSKNTLYLQMNSLRAEDTAVYYCARGGTVEHGAVYGTDVWGQGTTVTVSS
VL: DIQMTQSPSSVSASVGDRVTITCRASQGISSWVAWYQQKPGKAPKLLIYGSSRLQSGVPSRFSGSGSGTDFTLTISSLQPEDFATYYCQQYNTYPLTFGGGTKVEIKR
notes: IgG format
B16: HC 1251_B08 (wt)/LC 1337_A10 (wt) (antibody, human IgG1, kappa, V domains shown)
VH: QVQLVESGGGVVQPGRSLRLSCAASGFNFSDYGMHWVRQAPDKGLEWVAVIWYDGSISYYADSVKGRFTISRDNSKNTLYLQMNSLRAEDTAVYYCARGGTVEHGAVYGTDVWGQGATVTVSS
VL: DIQMTQSPSSLSASVGDRVTITCRASQGISSWVAWYQQKPEKAPKSLIYGSSRLQSGVPSRFSGSGSGTDFTLTISSLQPEDFATYYCQQYNTYPLTFGGGTKVEIKR
notes: IgG format

The target in the first assay is T1, hu-CD74 antigen (R&D SYSTEMS catalog …). Briefly: SPR (Biacore T200), captured on anti-human Fc, rhCD74 analyte. As to the method:
(§1) Kinetic binding experiments were performed at 25° C. using 1×HBS-EP+buffer. Kinetic data was collected by injecting test and control antibodies at concentrations of 10, 5 and 2.5 μg/mL for 12 s at a flow rate of 10 μl/min on flow cells 2, 3 and 4 respectively, followed by a buffer wash for 30 s at the same flow rate. Kinetic characterization of antibody samples was carried out with 8 concentrations of a 1:2 dilution series of rhCD74 antigen (R&D Systems) and 2 injections of 0 nM antigen (buffer only). […] Between each ligand capture and analyte binding cycle, regeneration was carried out using 2 injections of 3M MgCl₂ for 30 seconds at 30 μL/min, followed by a 30 second buffer wash step.
On the technique in general: Surface plasmon resonance follows binding to a sensor surface in real time, without labels.
The Kd is the concentration at which binding is half-saturated. As a reminder, the koff is the rate constant with which the complex falls apart. Lower therefore signals a long-lived complex. A word on the kon: it is the rate constant with which the complex forms. As to B1, the affinity, expressed as Kd, was 0.528 nM; the off-rate constant (koff) came out at 0.000297 s⁻¹; the kon stood at 563000 M⁻¹ s⁻¹.

Consider B2, for which the Kd is 0.114 nM, the koff stood at 9.99e-05 s⁻¹ and the on-rate constant (kon) is 873000 M⁻¹ s⁻¹.

In turn, B3 returned a Kd of 0.139 nM, a koff of 0.000137 s⁻¹ and an association rate constant (kon) of 989000 M⁻¹ s⁻¹.

B4 returned a dissociation constant Kd of 0.189 nM, an off-rate (koff) of 0.000167 s⁻¹ and a kon of 885000 M⁻¹ s⁻¹.

B5 returned a Kd of 0.225 nM, a koff of 0.000218 s⁻¹ and an on-rate constant (kon) of 968000 M⁻¹ s⁻¹.

In the case of B6, binding was characterised by a dissociation constant (Kd) of 0.0752 nM, the off-rate (koff) was 0.000173 s⁻¹ and the on-rate (kon) worked out at 2.3e+06 M⁻¹ s⁻¹.

B7: the equilibrium dissociation constant (Kd) stood at 0.224 nM, the dissociation rate constant (koff) stood at 0.000106 s⁻¹ and the on-rate constant (kon) was 475000 M⁻¹ s⁻¹.

B8 gave an equilibrium dissociation constant (Kd) of 0.185 nM, a koff of 0.000125 s⁻¹ and a kon of 678000 M⁻¹ s⁻¹.

A further assay shares this target. In words: SPR (Biacore T200), IgG captured on anti-human Fc, rhCD74 analyte. Here is the method:
as §1
B9: the Kd turned out to be 0.957 nM, the dissociation rate constant (koff) worked out at 0.000183 s⁻¹ and the on-rate constant (kon) came to 191000 M⁻¹ s⁻¹.

B10 returned an equilibrium dissociation constant (Kd) of 0.239 nM, an off-rate constant (koff) of 7.76e-05 s⁻¹ and an association rate constant (kon) of 325000 M⁻¹ s⁻¹.

Take B11: the dissociation constant (Kd) worked out at 0.252 nM, the off-rate constant (koff) was 7.77e-05 s⁻¹ and the association rate constant (kon) amounted to 309000 M⁻¹ s⁻¹.

B12 yielded a dissociation constant Kd of 0.64 nM, an off-rate (koff) of 0.000106 s⁻¹ and a kon of 166000 M⁻¹ s⁻¹.

As to B13, the Kd was determined as 0.862 nM, the off-rate (koff) was found to be 0.000155 s⁻¹ and the kon is 180000 M⁻¹ s⁻¹.

In turn, B14 showed a dissociation constant Kd of 0.332 nM, a dissociation rate constant (koff) of 0.000102 s⁻¹ and an on-rate (kon) of 306000 M⁻¹ s⁻¹.

For B15, the Kd was found to be 0.254 nM, the dissociation rate constant (koff) was determined as 9.97e-05 s⁻¹ and the kon came out at 392000 M⁻¹ s⁻¹.

Regarding B16, the equilibrium dissociation constant (Kd) came out at 0.235 nM, the dissociation rate constant (koff) turned out to be 0.000115 s⁻¹ and the kon turned out to be 491000 M⁻¹ s⁻¹.
